Source: patent US8124835B2, “Acyl-coa-dependent diacylglycerol acyltransferas 1 (DGAT1) gene from Tropaeolum majus, protein encoded thereby and uses thereof” (National Research Council of Canada, priority 2006, dated 2012)
“Also recorded” adds a separate entry of the source.

System: DGAT activity
Assay: DGAT activity of site-directed mutagenized (SDM) TmDGAT1s expressed in yeast quadruple mutant H1246 MATα
Format: biochemical, Tropaeolum majus
Source text: FIG. 13. Expression of site-directed mutagenized (SDM) TmDGAT1 cDNAs in yeast quadruple mutant H1246 MATα. (A) The nasturtium DGAT1 cDNAs in pYES2/NT plasmid were transformed into a yeast DGAT mutant strain: H1246 MATα. The specific SDM changes were: F2R=Phe^439 to Arg (SEQ. ID. NO: 4, refer to SEQ. ID. NO: 10 for the nucleotide sequence); P2R=Pro^216 to Arg (SEQ. ID. NO: 5, refer to SEQ. ID. NO: 11 for the nucleotide sequence); Y2G_W2G=Tyr^392 to Gly+Trp^395 to Gly (SEQ. ID. NO: 9, refer to SEQ. ID. NO: 15 for the nucleotide sequence); Y2A=Tyr^392 to Ala (SEQ. ID. NO: 8, refer to SEQ. ID. NO: 14 for the nucleotide sequence); S2A=Ser^197 to Ala (SEQ. ID. NO: 6, refer to SEQ. ID. NO: 12 for the nucleotide sequence) and E2V=E^145 to Val (SEQ. ID. NO: 7, refer to SEQ. ID. NO: 13 for the nucleotide sequence). Yeast cells transformed with pYES2/NT plasmid only was used as a control. The mutant, transformed with the native TmDGAT1, was used as a positive DGAT control. Following the induction in the presence of galactose, the transformants were lysed and assayed for DGAT activity. (B) Western blot of the SDM TmDGATs using an Anti-Xpress antibody. Following a 7 h lyse, a 15,000×g protein pellet isolated and proteins separated by SDS-PAGE.
FIG. 14. SDM TmDGATs (SnRK1 and Tyr-P sites) activity utilizing ^14C labeled erucoyl-CoA or oleoyl-CoA+sn-1,2-diolein or dierucin. SDM TmDGATs were transformed into yeast DGAT mutant, H1246 MATα, following induction by galactose the yeast were assayed for DGAT activity. Activity is expressed as a percent of native TmDGAT, with native TmDGAT activity set at 100%.
The TmDGAT1 ORF (SEQ. ID. NO: 2) in pYES2.1/V5-His-TOPO plasmid was transformed into a quadruple yeast mutant H1246MATα (Sandager et al, 2002) using the S.c. EasyComp™ transformation Kit (Invitrogen). Yeast cells transformed with pYES2.1/V5-His-TOPO plasmid only were used as a control. Transformants were selected by growth on synthetic complete medium lacking uracil (SC-ura), supplemented with 2% (w/v) glucose. The colonies were transferred into liquid SC-ura with 2% (w/v) glucose and grown at 28° C. overnight. The overnight cultures were diluted to an OD of 0.4 in induction medium (SC-ura+2% Galactose+1% Raffinose), and were induced for 24-36 hours at 28° C. Cells were collected and broken using glass beads. The crude protein concentration in the lysates was normalized using the Biorad assay based on the method of (Bradford, 1976) and assayed for DGAT activity. DGAT assays were conducted at pH 7.4, with shaking at 100 rev/min in a water bath at 30° C. for 60 min. Assay mixtures (0.5 ml final volume) contained 500 μg lysate protein normalized as described above, 90 mM HEPES-NaOH, 200 μM sn-1,2 diolein or sn-1,2 dierucin (pre-purified by TLC on 10% borate silica H plates) in 0.02% Tween-20, and 18 μM 1-^14C acyl-CoA (specific activity 2 nCi/nmol) as the acyl donor. The ^14C-labelled TAGs were isolated and counted as described above for insect cell expression.
To introduce point mutations into the Tropaeolum majus DGAT1 coding region, we used a QuikChange™ site-directed mutagenesis kit (Stratagene). Primers were complementary to opposite strands of pYES2.1/V5-His TOPO yeast expression vector (Invitrogen) containing the TmDGAT1 gene. During the PCR, primers were extended with PfuTurbo DNA polymerase. This polymerase replicated both strands with high fidelity and without displacing the mutated oligonucleotide primers. The cycling parameters used for site-directed mutagenesis were as follows: initial denaturation at 95° C. for 30 s, followed by 15 cycles at 95° C. for 30 s, 55° C. for 1 min, and 68° C. for 15 min, with termination at 68° C. for 15 min. Following the PCR reaction, the product was treated with DpnI endonuclease (target sequence: 5′-Gm6ATC-3′) which is specific for methylated and hemimethylated DNA, used to digest the parental DNA template and to select for the mutated DNA.

[1] = recombinant SDM protein from yeast H1246MATα

B1: P216R (protein)
chain: MAVAESSQNTTTMSGHGDSDLNNFRRRKPSSSVIEPSSSGFTSTNGVPATGHVAENRDQDRVGAMENATGSVNLIGNGGGVVIGNEEKQVGETDIRFTYRPSFPAHRRVRESPLSSDAIFKQSHAGLFNLCIVVLIAVNSRLIIENLMKYGWLIDTGFWFSSRSLGDWSIFMCCLTLPIFPLAAFIVEKLVQRNHISELVAVLLHVIVSTAAVLYRVIVILTCDSVYMSGVVLMLFGCIMWLKLVSYAHTSSDIRTLAKSGYKGDAHPNSTIVSCSYDVSLKSLAYFMVAPTLCYQPSYPRSSCIRKGWVVRQFVKLIVFIGLMGFIIEQYINPIVRNSKHPLKGDFLYAIERVLKLSVPNLYVWLCMFYSFFHLWLNILAELLRFGDREFYKDWWNAKTVAEYWKMWNMPVHRWMVRHLYFPCLRNGIPKEGAIIIAFLVSGAFHELCIAVPCHVFKLWAFIGIMFQVPLVLITNYLQEKFSNSMVGNMIFWFIFCILGQPMCVLLYYHDLINLKEK
- DGAT1 activity compared to recombinant WT TmDGAT1 (in words) (recombinant SDM protein from yeast H1246MATα, listed as Proline^216 (changed to an Arg)): total loss of DGAT activity; also recorded: abolished
- DGAT1 activity compared to recombinant WT TmDGAT1 (in words) (recombinant SDM protein from yeast H1246MATα, listed as Proline^216 with Arginine): total loss of DGAT1 activity

B2: E145V: SDM TmDGAT1, Glu145 to Val in the catalytic site (SEQ ID NO: 7) (protein, listed as Tropaeolum majus)
chain: MAVAESSQNTTTMSGHGDSDLNNFRRRKPSSSVIEPSSSGFTSTNGVPATGHVAENRDQDRVGAMENATGSVNLIGNGGGVVIGNEEKQVGETDIRFTYRPSFPAHRRVRESPLSSDAIFKQSHAGLFNLCIVVLIAVNSRLIIVNLMKYGWLIDTGFWFSSRSLGDWSIFMCCLTLPIFPLAAFIVEKLVQRNHISELVAVLLHVIVSTAAVLYPVIVILTCDSVYMSGVVLMLFGCIMWLKLVSYAHTSSDIRTLAKSGYKGDAHPNSTIVSCSYDVSLKSLAYFMVAPTLCYQPSYPRSSCIRKGWVVRQFVKLIVFIGLMGFIIEQYINPIVRNSKHPLKGDFLYAIERVLKLSVPNLYVWLCMFYSFFHLWLNILAELLRFGDREFYKDWWNAKTVAEYWKMWNMPVHRWMVRHLYFPCLRNGIPKEGAIIIAFLVSGAFHELCIAVPCHVFKLWAFIGIMFQVPLVLITNYLQEKFSNSMVGNMIFWFIFCILGQPMCVLLYYHDLINLKEK
- decrease in DGAT1 activity compared to wild type TmDGAT1 [1]: 43%

B3: S197A: SDM TmDGAT1, Ser197 to Ala in putative SnRK1 phosphorylation motif (SEQ ID NO: 6) (protein, listed as Tropaeolum majus)
chain: MAVAESSQNTTTMSGHGDSDLNNFRRRKPSSSVIEPSSSGFTSTNGVPATGHVAENRDQDRVGAMENATGSVNLIGNGGGVVIGNEEKQVGETDIRFTYRPSFPAHRRVRESPLSSDAIFKQSHAGLFNLCIVVLIAVNSRLIIENLMKYGWLIDTGFWFSSRSLGDWSIFMCCLTLPIFPLAAFIVEKLVQRNHIAELVAVLLHVIVSTAAVLYPVIVILTCDSVYMSGVVLMLFGCIMWLKLVSYAHTSSDIRTLAKSGYKGDAHPNSTIVSCSYDVSLKSLAYFMVAPTLCYQPSYPRSSCIRKGWVVRQFVKLIVFIGLMGFIIEQYINPIVRNSKHPLKGDFLYAIERVLKLSVPNLYVWLCMFYSFFHLWLNILAELLRFGDREFYKDWWNAKTVAEYWKMWNMPVHRWMVRHLYFPCLRNGIPKEGAIIIAFLVSGAFHELCIAVPCHVFKLWAFIGIMFQVPLVLITNYLQEKFSNSMVGNMIFWFIFCILGQPMCVLLYYHDLINLKEK
- increase in trierucin production compared to the native DGAT1 (erucoyl-CoA:sn-1,2-dierucin pairing of substrates): ~40%
- increase in DGAT1 activity compared to wild type TmDGAT1 [1]: up to 125%

B4: Y392A (protein)
chain: MAVAESSQNTTTMSGHGDSDLNNFRRRKPSSSVIEPSSSGFTSTNGVPATGHVAENRDQDRVGAMENATGSVNLIGNGGGVVIGNEEKQVGETDIRFTYRPSFPAHRRVRESPLSSDAIFKQSHAGLFNLCIVVLIAVNSRLIIENLMKYGWLIDTGFWFSSRSLGDWSIFMCCLTLPIFPLAAFIVEKLVQRNHISELVAVLLHVIVSTAAVLYPVIVILTCDSVYMSGVVLMLFGCIMWLKLVSYAHTSSDIRTLAKSGYKGDAHPNSTIVSCSYDVSLKSLAYFMVAPTLCYQPSYPRSSCIRKGWVVRQFVKLIVFIGLMGFIIEQYINPIVRNSKHPLKGDFLYAIERVLKLSVPNLYVWLCMFYSFFHLWLNILAELLRFGDREFAKDWWNAKTVAEYWKMWNMPVHRWMVRHLYFPCLRNGIPKEGAIIIAFLVSGAFHELCIAVPCHVFKLWAFIGIMFQVPLVLITNYLQEKFSNSMVGNMIFWFIFCILGQPMCVLLYYHDLINLKEK
- decrease in DGAT1 activity compared to wild type TmDGAT1 [1]: 80%

B5: Y392G + W395G (protein)
chain: MAVAESSQNTTTMSGHGDSDLNNFRRRKPSSSVIEPSSSGFTSTNGVPATGHVAENRDQDRVGAMENATGSVNLIGNGGGVVIGNEEKQVGETDIRFTYRPSFPAHRRVRESPLSSDAIFKQSHAGLFNLCIVVLIAVNSRLIIENLMKYGWLIDTGFWFSSRSLGDWSIFMCCLTLPIFPLAAFIVEKLVQRNHISELVAVLLHVIVSTAAVLYPVIVILTCDSVYMSGVVLMLFGCIMWLKLVSYAHTSSDIRTLAKSGYKGDAHPNSTIVSCSYDVSLKSLAYFMVAPTLCYQPSYPRSSCIRKGWVVRQFVKLIVFIGLMGFIIEQYINPIVRNSKHPLKGDFLYAIERVLKLSVPNLYVWLCMFYSFFHLWLNILAELLRFGDREFGKDGWNAKTVAEYWKMWNMPVHRWMVRHLYFPCLRNGIPKEGAIIIAFLVSGAFHELCIAVPCHVFKLWAFIGIMFQVPLVLITNYLQEKFSNSMVGNMIFWFIFCILGQPMCVLLYYHDLINLKEK
- DGAT1 activity compared to recombinant WT TmDGAT1 (in words) [1]: total loss of activity
